A value given as a limit tells only on which side of the number the result lay.

The source of these data is US20260108556A1 (ABELZETA, published 2026).

In assay [1] the target is T1, CLEC2B (human, UniProt Q92478 1-149).
T1 construct: whole, on cells
T1 sequence (looked up): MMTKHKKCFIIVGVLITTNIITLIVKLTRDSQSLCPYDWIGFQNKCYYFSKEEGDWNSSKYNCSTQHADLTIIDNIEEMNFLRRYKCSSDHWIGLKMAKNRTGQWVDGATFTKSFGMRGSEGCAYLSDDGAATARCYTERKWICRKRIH
Put plainly: flow cytometry, HEK293T membrane protein array, 20 µg/mL and 5 µg/mL. An excerpt:
(§1) In the membrane protein array, genetic engineering methods are used to construct the full-length cDNA sequences of human membrane proteins into expression vectors, which are then transiently transfected into HEK293T cells and arranged into an array by using microfluidic technology or chip printing technology. It is a high-throughput screening technology for studying the interaction between test substances and membrane proteins.
(§2) A chimeric rabbit monoclonal antibody, C-CAR168 scFv-RabFc, was generated by linking the anti-CD20 scFv (e.g., derived from the Ofatumumab mAb) and the anti-BCMA scFv (e.g., derived from the BCMA-20 mAb) in frame with a rabbit IgG Fc region. The chimeric antibody was added at a concentration of 20 μg/mL to the HEK293T cell array transiently transfected with 5220 membrane proteins. […] The average fluorescence intensity of its binding to CD20 and BCMA in flow cytometry was about 60-fold and 110-fold of that of the negative control group, respectively (FIG. 8B). […] This is mainly due to the binding between FCGR1A and the rabbit-derived Fc of the recombinant protein; so there is no relevant risk in clinical applications.
In general terms: Flow cytometry measures light scatter and fluorescence of single cells or particles in a stream.

The target of assay [2] is T2, MC2R (human, UniProt Q01718 1-297).
T2 construct: whole, on cells
T2 sequence (Q01718 whole entry): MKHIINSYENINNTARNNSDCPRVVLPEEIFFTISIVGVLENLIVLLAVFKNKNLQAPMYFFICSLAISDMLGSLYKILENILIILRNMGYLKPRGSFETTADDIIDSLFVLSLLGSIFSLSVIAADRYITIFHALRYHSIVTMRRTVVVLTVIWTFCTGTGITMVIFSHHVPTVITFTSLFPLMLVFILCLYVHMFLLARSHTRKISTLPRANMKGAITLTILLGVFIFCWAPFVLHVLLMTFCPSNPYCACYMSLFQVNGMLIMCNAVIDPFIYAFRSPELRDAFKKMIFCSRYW
Described as above.
Excerpt: as §1, §2

Assay [3] has as its target T3, MPZ (human, UniProt P25189 30-248).
T3 construct: whole, on cells
T3 sequence (looked up): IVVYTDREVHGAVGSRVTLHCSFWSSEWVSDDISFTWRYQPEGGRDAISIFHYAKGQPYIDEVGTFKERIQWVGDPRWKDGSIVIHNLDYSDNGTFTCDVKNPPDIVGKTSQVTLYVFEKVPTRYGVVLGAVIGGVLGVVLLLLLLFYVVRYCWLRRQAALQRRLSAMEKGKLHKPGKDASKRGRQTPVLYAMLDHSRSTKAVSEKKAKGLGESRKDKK
The description is as above.
Excerpt: as §1, §2

Assay [4] concerns the target FCGR1A (human) (UniProt P12314). Briefly: flow cytometry, HEK293T membrane protein array.
Assay [5] deals with F11R (human) (UniProt Q9Y624). Put plainly: flow cytometry, HEK293T membrane protein array, 20 µg/mL and 5 µg/mL.
F11R (human), sequence (Q9Y624 28-299, stated change not applied): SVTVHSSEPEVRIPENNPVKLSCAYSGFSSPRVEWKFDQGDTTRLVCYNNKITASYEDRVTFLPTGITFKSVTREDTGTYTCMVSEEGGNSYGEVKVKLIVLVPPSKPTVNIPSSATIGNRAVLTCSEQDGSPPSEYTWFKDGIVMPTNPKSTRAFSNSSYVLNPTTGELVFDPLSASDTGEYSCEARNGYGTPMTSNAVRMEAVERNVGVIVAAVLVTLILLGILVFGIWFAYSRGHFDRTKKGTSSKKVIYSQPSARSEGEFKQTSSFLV
Assay [6] has as its target T4, human BCMA (human, UniProt Q02223 1-184).
T4 construct: whole, on cells; also called B-cell maturation antigen; TNFRSF17
T4 sequence (looked up): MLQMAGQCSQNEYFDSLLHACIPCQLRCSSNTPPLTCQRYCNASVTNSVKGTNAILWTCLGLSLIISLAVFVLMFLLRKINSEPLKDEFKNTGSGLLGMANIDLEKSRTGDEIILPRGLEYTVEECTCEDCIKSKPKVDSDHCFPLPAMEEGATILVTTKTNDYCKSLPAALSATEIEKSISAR
Briefly: flow cytometry, HEK293T membrane protein array.
Excerpt: as §1, §2

Assay [7] has as its target T5, human CD20 (human, UniProt P11836 1-297).
T5 construct: whole, on cells; also called B1; MS4A
T5 sequence (looked up): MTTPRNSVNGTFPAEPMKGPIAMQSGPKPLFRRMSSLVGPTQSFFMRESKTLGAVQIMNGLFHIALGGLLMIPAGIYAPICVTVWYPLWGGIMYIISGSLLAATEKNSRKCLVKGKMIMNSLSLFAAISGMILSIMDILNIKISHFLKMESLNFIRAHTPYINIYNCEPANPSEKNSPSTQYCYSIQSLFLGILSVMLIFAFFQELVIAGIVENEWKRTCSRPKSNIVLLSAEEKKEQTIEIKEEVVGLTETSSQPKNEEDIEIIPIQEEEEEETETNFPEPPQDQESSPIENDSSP
Briefly: flow cytometry, HEK293T membrane protein array.
Excerpt: as §1, §2

FCGR1A (human), sequence (P12314 16-374): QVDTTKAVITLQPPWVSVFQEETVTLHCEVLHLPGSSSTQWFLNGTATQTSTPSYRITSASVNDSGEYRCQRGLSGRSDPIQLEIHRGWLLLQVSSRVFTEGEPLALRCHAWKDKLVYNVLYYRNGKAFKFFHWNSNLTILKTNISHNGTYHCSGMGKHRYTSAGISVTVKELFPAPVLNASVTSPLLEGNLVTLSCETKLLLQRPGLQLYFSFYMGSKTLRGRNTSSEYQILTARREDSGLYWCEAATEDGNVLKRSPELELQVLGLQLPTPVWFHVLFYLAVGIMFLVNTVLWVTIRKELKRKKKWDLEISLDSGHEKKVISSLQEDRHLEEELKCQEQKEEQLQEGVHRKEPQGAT

B1: C-CAR168 scFv-RabFc (Fc fusion)
chain: EIVLTQSPATLSLSPGERATLSCRASQSVSSYLAWYQQKPGQAPRLLIYDASNRATGIPARFSGSGSGTDFTLTISSLEPEDFAVYYCQQRSNWPITFGQGTRLEIKGSTSGGGSGGGSGGGGSSEVQLVESGGGLVQPGRSLRLSCAASGFTFNDYAMHWVRQAPGKGLEWVSTISWNSGSIGYADSVKGRFTISRDNAKKSLYLQMNSLRAEDTALYYCAKDIQYGNYYYGMDVWGQGTTVTVSSGGGGSDIQMTQSPSSLSASVGDRVTITCRASQGISNYLNWYQQKPGKAPKPLIYYTSNLQSGVPSRFSGSGSGTDYTLTISSLQPEDFATYYCMGQTISSYTFGQGTKLEIKGGGGSGGGGSGGGGSEVQLVESGGGLVQPGGSLRLSCAASGFTFSNFDMAWVRQAPGKGLVWVSSITTGADHAIYADSVKGRFTISRDNAKNTLYLQMNSLRAEDTAVYYCVRHGYYDGYHLFDYWGQGTLVTVSS
notes: also called chimeric rabbit monoclonal antibody; not shown: rabbit IgG Fc region
As to B1, the “average fluorescence intensity, fold of the negative control group” value in assay [1] was at most 2 fold; in assay [2] it was at most 2 fold; in assay [3], at most 2 fold; in assay [4], 2.5 fold; in assay [5] it was under 2 fold; in assay [6], about 110 fold. Further, the “average fluorescence intensity, fold of the negative control group” value in assay [7] is about 60 fold.
